The record followed here is patent US20200362047A1 (CRESCENDO BIOLOGICS, published 2020).

Where a chain is given by its changes, count along the chain named.

B1: Humabody VH 2.1 (VHH)
VH: EVQLVESGGGLVKPGGSLRVSCAASGFTFSDYYMSWFRQAPGKGLEWVSYISGSGDIIDYADSVKGRFTISRDNAKNSLYLQMNNLRAEDTAVYHCAREDSRLTGTTDFDNWGQGTLVTVSSHHHHHH
notes: human single VH domain
B2: Humabody VH 2.8 (VHH)
VH: B1 VH with V20L, T28A, Y50H, D56T, I57T, N85S, L103M, T104P
notes: human single VH domain
B3: Humabody VH 2.9 (VHH)
VH: B1 VH with V20L, S35T, V48I, I57T, D62E, N85S, L103I, T104A, Q114P
notes: human single VH domain
B4: Humabody VH 2.14 (VHH)
VH: EVQLVESGGGLVKPGGSLRLSCAASGFTFSDYYMTWFRQAPGKGLEWISYISGSGDTIDYAESVKGRFTISRDNAKNSLYLQMNSLRAEDTAVYYCAREDIRMPGTTDFDHWGQGTLVTVSSHHHHHH
notes: human single VH domain
B5: Humabody VH 1.18 (VHH)
VH: EVQLVESGGGLVQPGGSLRLSCAASGFTFSTHWMNWARQAPGKELEWVANINQDGSEKYYVDSVEGRFTISRDNANNSLYLQMNSLRAEDTAVYYCARGGVGYGDSHFGMDVWGLGTTVTVSSHHHHHH
notes: human single VH domain
B6: Humabody VH 1.1 (VHH)
VH: EVQLVESGGGLVQPGGSLRLSCAASGFTFSSHWMTWFRQAPGKGLEWVAHIKEDGSEKYYEDSVEGRFTVSRDNAKNSVYLQMNSLRAEDTAVYYCARGGDGYSDSHFGVDVWGQGTTVTVSSHHHHHH
notes: human single VH domain; also called single domain antibody 1.1
B7: Humabody VH 1.78 (VHH)
VH: QVQLVESGGGLVQPGGSLRLSCAATGFTLSNYWMNWVRQAPGKGLEWVANINQDGSERYYVDSVKGRFTISRDNAKNSLYLQMSSLRAEDTAVYFCARGGEGYGVDHYGLDVSGQGTTVTVSSHHHHHH
notes: human single VH domain
B8: Humabody VH 1.11 (VHH)
VH: EVQLVESGGGLVQPGGSLRLSCEASGFTFSDYWMNWARQAPGKGLEWVANIKEDGSEKYYVDSVEGRFTISRDNAKNSTYLQMNSLRAEDTAVYYCARGGAGYSMSHYGMDVWGQGTTVTVSSHHHHHH
notes: human single VH domain
B9: Humabody VH 1.52 (VHH)
VH: EVQLVESGGGLVQIGGSLRLSCAASGFTFSKYWMIWVRQAPEKGLEWVANINQDGSEKYYVDSVEGRFTISRDNANNSLFLQMNSLRAEDTAVYYCARGGDDYSISHFGMDVSGQGTRVTVSSHHHHHH
notes: human single VH domain

T1 sequence (Q07011 24-255 limits assumed): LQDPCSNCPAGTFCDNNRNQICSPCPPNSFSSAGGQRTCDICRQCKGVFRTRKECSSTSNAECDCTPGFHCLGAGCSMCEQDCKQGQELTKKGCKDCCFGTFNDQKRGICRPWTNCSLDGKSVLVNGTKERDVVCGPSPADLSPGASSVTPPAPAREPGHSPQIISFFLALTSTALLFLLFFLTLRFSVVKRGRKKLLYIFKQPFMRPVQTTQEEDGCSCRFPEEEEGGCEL

One assay addresses T1, CD137 on pre-stimulated human CD8+ T cells (human, UniProt Q07011 24-255).
T1 construct: also called pre-stimulated CD8+ cells; primary T cells
Briefly: flow cytometry, PMA/ionomycin-stimulated human CD8+ T cells, mean of 2-3 donors. In outline:
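PMA/ionomycin-activated (48-72 h) CD8+ T cells purified from PBMC by negative selection were incubated with serially diluted His-tagged VH for 30 mins-1 hour at 4° C. Bound VH was detected via anti-His plus Alexa Fluor-488 secondary, with live/dead near-IR gating, and read by flow cytometry after fixation.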
(In general: Flow cytometry measures light scatter and fluorescence of single cells or particles in a stream.)
The molecule B1 came in with an EC50 of 2.4 nM.

With B2, the EC50 came to 6.5 nM.

B3 registered an EC50 of 0.6 nM. Compared with the last molecule, the EC50 is about 11-fold lower.

B4 displayed an EC50 of 0.61 nM.

B5: the EC50 turned out to be 1.9 nM.

As for B6, the EC50 came to 0.22 nM.

In turn, B7 showed a concentration for a half-maximal effect (EC50) of 0.61 nM.

Take B8: a half-maximal response (EC50) required 0.89 nM.

B9 had an EC50 of 0.88 nM. This EC50 and that of the molecule before are within 1.5-fold of each other.

Another assay deals with T2, human CD137 expressed on the surface of CHO cells (human, UniProt Q07011 24-255).
T2 construct: Also used for the Jurkat reporter cells that express human CD137 (functional rows); also called CHO human CD137 cells; CHO huCD137
T2 sequence (Q07011 24-255 limits assumed): as above
Nature of the assay: FMAT, CHO human CD137 cells. The essentials:
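FMAT binding read-out: gated on DRAQ5 (FL5) signal, with the FL2 median intensity taken as VH binding. Cells (2000/well, DRAQ5-prestained) were incubated with diluted His-tagged molecules, 1.5 nM anti-His and Alexa Fluor-488 secondary for ≥2 h at room temperature in pH 7.4 PBS buffer containing BSA and azide.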
With B1, the response was half-maximal at 0.65 nM (EC50).

Molecule B2 gave an EC50 of 0.19 nM.

For the molecule B3, the EC50 was determined as 0.18 nM.

With B4, a half-maximal response (EC50) required 0.31 nM.

Regarding B5, the 50% effective concentration (EC50) was 0.31 nM. This lies in the sub-nanomolar range.

The molecule B6 displayed an EC50 of 0.22 nM. The EC50 values of the last two molecules are within 1.5-fold of each other.

B7 showed an EC50 of 0.32 nM.

As to B8, a half-maximal effect (EC50) was put at 0.27 nM.

In the case of B9, the EC50 turned out to be 0.37 nM.

The next assay concerns the target T3, human OX40-Fc (R&D Systems cat no. 3388-OX) (human, UniProt P43489 29-216).
T3 construct: Bought protein; not shown: Fc tag
T3 sequence (looked up): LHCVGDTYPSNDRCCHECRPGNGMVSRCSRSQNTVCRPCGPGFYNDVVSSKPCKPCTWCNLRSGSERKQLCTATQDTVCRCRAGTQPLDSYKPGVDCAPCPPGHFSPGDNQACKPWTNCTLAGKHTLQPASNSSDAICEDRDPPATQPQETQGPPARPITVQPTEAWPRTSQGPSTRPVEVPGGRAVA
Nature of the assay: ELISA, coated OX40-Fc. The protocol:
Specificity of binding for CD137 over the tumour necrosis factor receptor family members OX40 and GITR (Glucocorticoid-induced TNFR-related) was determined using an ELISA assay. Nunc Maxisorp plates were coated with 1 ug/ml human CD137-Fc recombinant protein (Acro Biosystems 41B-H5258), human GITR-Fc (R&D Systems cat no. 689-GR) human OX40-Fc (R&D Systems cat no. 3388-OX) in sodium carbonate buffer overnight at 4° C. then washed twice with PBS. Non-specific protein interactions were blocked by incubation with 1% (w/v) skimmed milk powder (Marvel®) in PBS/0.1% Tween-20 for 1 hour at room temperature. Plates were washed twice with PBS then VH or antibody control (1 ug/ml) added for 1 hour at room temperature. Following three washes with PBS/0.1% Tween-20 a 1:1000 dilution of anti His-HRP (VH detection) or anti mouse-HRP (positive control mouse monoclonal antibody detection) was added in 1% Marvel/PBS/0.1% Tween-20. The detection antibodies were allowed to bind for 1 hour at room temperature then the plates were washed twice in PBS/0.1% Tween-20 and once in PBS. The ELISA was developed using TMB substrate and the reaction was stopped by the addition of 50 ul 0.5M H₂SO₄ solution. The absorbance at 450 nm was measured using the BMG Pherastar.
(In general: In an ELISA, binding on a coated surface is turned into a signal by an enzyme label.)
Turning to B1, the binding result was “no binding (tested: 1 ug/ml)”.

On to B2, for which the binding result is “no binding (tested: 1 ug/ml)”.

Regarding B3, the binding result is given as “no binding (tested: 1 ug/ml)”.

As for B4, the binding result was “no binding (tested: 1 ug/ml)”.

Take B5: the binding result was “no binding (tested: 1 ug/ml)”.

In the case of B6, the binding result is “no binding (tested: 1 ug/ml)”.

Regarding B7, the binding result is recorded as “no binding (tested: 1 ug/ml)”.

Take B8: the binding result is reported as “no binding (tested: 1 ug/ml)”.

As for B9, the binding result is “no binding (tested: 1 ug/ml)”.

The next assay deals with T4, human CD137-human Fc chimeric protein (Acro Biosystems cat no. 41B-H5258) (human, UniProt Q07011 24-186).
T4 construct: Bought protein; The Octet Protein G and Biacore experiments name no catalogue number; also called human CD137Fc recombinant protein; human CD137-Fc recombinant protein; not shown: human IgG1 Fc tag
Briefly: BLI (Octet RED384), CD137-Fc amine-coupled to AR2G sensors, 1:1 model. Here is the method:
The kinetics of monovalent and bispecific Humabody VH were determined on a ForteBio Octet RED 384 instrument. To study the interaction with the antigens, CD137-Fc tag protein (Acro Biosystems cat no. 41B-H5258) or PSMA-his (R&D Systems cat no. 4234-ZN) was immobilised onto AR2G biosensors (ForteBio cat no. 18-5082) by amine coupling. Monovalent VH and bispecific molecules were serially diluted (typically 1:2 dilution series starting between 12-25 nM, at the highest concentration) in kinetics buffer (0.1% BSA, 0.02% Tween, 1×PBS) and binding to the immobilised proteins was studied during the association and dissociation phases. PSMA binding was measured using 180 seconds association and 600 seconds dissociation phases. CD137 binding was measured 180 seconds association and 600 seconds dissociation phases. Reference subtracted data were fitted to a 1:1 binding model using the ForteBio Octet Data Analysis software.
Background: BLI is a label-free optical method that tracks binding on a fibre tip over time.
B1 yielded a Kd of 6.7 nM, a koff of 0.0052 s⁻¹ and a kon of 770000 M⁻¹ s⁻¹.

With B6, the affinity, expressed as Kd, was 0.52 nM; the koff is 0.00036 s⁻¹; the kon came out at 710000 M⁻¹ s⁻¹.

As usually defined, the EC50 is the concentration that produces a half-maximal response. The low end stands for higher potency in that assay, the high end for lower potency in that assay. The Kd is a measure of binding affinity in units of concentration. Higher therefore signals weaker binding. One may read the koff as the rate constant with which the complex falls apart. Lower therefore signals a long-lived complex. A word on the kon: it is a measure of how fast the partners come together. Lower therefore signals slow association.
